Experimental data as given in patent US20240366776A1 (Hoffmann-La Roche, published 2024).
Positions count from the first letter of the chain named. Each block holds one binder with its values, some of them ahead of it.

Columns and labels:
[1] = molecular target: PD-1-Fc (UniProt Q15116 25-167, limits assumed); assay: cell-based or functional assay
[2] = molecular target: T1, biotinylated IL-2 receptor beta gamma heterodimer Fc (IL-2RBG; Acro ILG-H5254) (UniProt P14784 27-239; P31785 23-262, biotinylated); assay: ELISA, captured complex, biotin-IL-2RBG 10 nM, PD-1 Fc titrated
T1 construct: bought heterodimer
T1 sequence (looked up) 1: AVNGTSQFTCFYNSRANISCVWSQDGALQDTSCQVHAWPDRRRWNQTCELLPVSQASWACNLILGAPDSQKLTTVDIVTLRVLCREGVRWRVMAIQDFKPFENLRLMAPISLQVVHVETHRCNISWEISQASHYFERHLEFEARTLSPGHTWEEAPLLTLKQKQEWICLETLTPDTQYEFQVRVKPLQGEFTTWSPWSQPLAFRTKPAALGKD
T1 sequence (looked up) 2: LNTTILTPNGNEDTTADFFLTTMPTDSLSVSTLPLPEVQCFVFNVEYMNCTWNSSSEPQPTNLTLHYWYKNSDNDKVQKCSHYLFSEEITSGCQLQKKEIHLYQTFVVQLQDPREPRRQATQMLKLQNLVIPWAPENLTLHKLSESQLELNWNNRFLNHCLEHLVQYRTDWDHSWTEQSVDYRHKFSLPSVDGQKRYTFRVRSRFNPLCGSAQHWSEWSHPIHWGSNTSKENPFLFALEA
Experimental: The DBA-cytokine complexes and control antibody-cytokine complexes were produced in two formats: (1) “Symmetric” immunocytokine (shown in FIG. 2E); or (2) “Asymmetric” immunocytokine (shown in FIG. 2B) by expression in mammalian cells and purified using standard protocols. […] To perform the assay, 384-well ELISA plates were coated with anti-Fc antibody at 1 micrograms/ml in 100 mM bicarbonate solution pH 9.0 overnight at 4° C. and washed twice with SUPERBLOCK™. Antibody-cytokine complexes were then added to each well at a constant concentration of 6 nM and allowed to incubate for 1 hour and washed three times in PBS plus 0.05% TWEEN® 20 (PBST). Titrated concentrations of PD-1 Fc or an IgG1 control Fc were added and allowed to incubate for 15 minutes before the addition of a constant amount of biotinylated IL-2RBG at 10 nM. The plates were incubated for an additional 30 minutes, washed and biotinylated IL-2RBG detection was performed using streptavidin-HRP and standard ELISA protocols.

Chain of PD-1-Fc (Q15116 25-167 limits assumed): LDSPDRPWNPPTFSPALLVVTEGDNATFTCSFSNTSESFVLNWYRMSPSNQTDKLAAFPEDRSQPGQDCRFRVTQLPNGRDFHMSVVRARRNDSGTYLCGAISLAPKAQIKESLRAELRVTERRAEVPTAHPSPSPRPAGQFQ

B1: AF4379 (other)
heavy: APTSSSTKKTQLQLEHLLLDLQMILNGINNYKNPKLTDMLTFEFYMPKKATELKHLQCLERELKPLEEVLNLAQSKNFHLRPRDLISNINVIVLELKGSETTFMCEYADETATIVEFLNRWITFCQSIISTLTGGGGSGGGGSGGGGSGGGGSQVQLVQSGAEVKKPGASVKVSCKASGDTFTRYYVHWVRQAPGQGLEWMGIINPSGGYASYAQKFQGRVTMTRDTSTSTVYMELSSLRSEDTAVYYCAAGLFIWGQGTLVTVSSAKTTAPSVYPLAPVCGDTTGSSVTLGCLVKGYFPEPVTLTWNSGSLSSGVHTFPAVLQSDLYTLSSSVTVTSSTWPSQSITCNVAHPASSTKVDKKIEPRGPTIKPCPPCKCPAPNAAGGPSVFIFPPKIKDVLMISLSPIVTCVVVDVSEDDPDVQISWFVNNVEVHTAQTQTHREDYNSTLRVVSALPIQHQDWMSGKEFKCKVNNKDLGAPIERTISKPKGSVRAPQVYVLPPPEEEMTKKQVTLTCMVTDFMPEDIYVEWTNNGKTELNYKNTEPVLDSDGSYFMYSKLRVEKKNWVERNSYSCSVVHEGLHNHHTTKSFSRTPGK
light: DIQMTQSPSSLSASVGDRVTITCRASQSIGRYLAWYQQKPGKAPKLLIYSASNLETGVPSRFSGSGSGTDFTLTISSLQPEDFATYYCQQYNSFPVTFGPGTKVDIKRADAAPTVSIFPPSSEQLTSGGASVVCFLNNFYPKDINVKWKIDGSERQNGVLNSWTDQDSKDSTYSMSSTLTLTKDEYERHNSYTCEATHKTSTSPIVKSFNRNEC
IL-2 activity EC50, HEK-Blue IL-2 reporter cells, IgG1 coated wells (control) [1]: 62 pM
IL-2 activity EC50, HEK-Blue IL-2 reporter cells, PD-1 coated wells [1]: 31 pM

B2: AF003753 (other)
heavy 1: B1 heavy with T3A, D38R, F42A, E43K, Y45A, R61E, L72G, C125A, K558D, K588E
heavy 2: QVQLVQSGAEVKKPGASVKVSCKASGDTFTRYYVHWVRQAPGQGLEWMGIINPSGGYASYAQKFQGRVTMTRDTSTSTVYMELSSLRSEDTAVYYCAAGLFIWGQGTLVTVSSAKTTAPSVYPLAPVCGDTTGSSVTLGCLVKGYFPEPVTLTWNSGSLSSGVHTFPAVLQSDLYTLSSSVTVTSSTWPSQSITCNVAHPASSTKVDKKIEPRGPTIKPCPPCKCPAPNAAGGPSVFIFPPKIKDVLMISLSPIVTCVVVDVSEDDPDVQISWFVNNVEVHTAQTQTHREDYNSTLRVVSALPIQHQDWMSGKEFKCKVNNKDLGAPIERTISKPKGSVRAPQVYVLPPPEKEMTKKQVSLTCLVKDFMPEDIYVEWTNNGKTELNYKNTEPVLKSDGSYFMYSKLTVEKKNWVERNSYSCSVVHEGLHNHHTTKSFSRTPGK
light: B1 light with Y32W, N92E
notes: also called AF3753
binding result [2]: binds

B3: AF003749 (other)
heavy 1: B1 heavy with T3A, D38R, F42A, E43K, Y45A, R61E, L72G, C125A, K558D, K588E
heavy 2: B2 heavy 2
light: B1 light with S50Y
notes: also called AF3749
binding result [2]: binds

B4: AF003951 (other)
heavy 1: APASSSTKKTQLQLEHLLLDLQMILNGINNYKNPKLTRMLTAKFAMPKKATELKHLQCLEEELKPLEEVLNGAQSKNFHLRPRDLISNINVIVLELKGSETTFMCEYADETATIVEFLNRWITFAQSIISTLTGGGGSGGGGSGGGGSGGGGSQVQLVQSGAEVKKPGASVKVSCKASGYTFTDYYMHWVRQAPGQGLEWMGIINPRAGYTSYALKFQGRVTMTRDTSTSTVYMELSSLRSEDTAVYYCTSGWDVWGQGTLVTVSSAKTTAPSVYPLAPVCGDTTGSSVTLGCLVKGYFPEPVTLTWNSGSLSSGVHTFPAVLQSDLYTLSSSVTVTSSTWPSQSITCNVAHPASSTKVDKKIEPRGPTIKPCPPCKCPAPNAAGGPSVFIFPPKIKDVLMISLSPIVTCVVVDVSEDDPDVQISWFVNNVEVHTAQTQTHREDYNSTLRVVSALPIQHQDWMSGKEFKCKVNNKDLGAPIERTISKPKGSVRAPQVYVLPPPEEEMTKKQVTLTCMVTDFMPEDIYVEWTNNGKTELNYKNTEPVLDSDGSYFMYSDLRVEKKNWVERNSYSCSVVHEGLHNHHTTESFSRTPGK
heavy 2: QVQLVQSGAEVKKPGASVKVSCKASGYTFTDYYMHWVRQAPGQGLEWMGIINPRAGYTSYALKFQGRVTMTRDTSTSTVYMELSSLRSEDTAVYYCTSGWDVWGQGTLVTVSSAKTTAPSVYPLAPVCGDTTGSSVTLGCLVKGYFPEPVTLTWNSGSLSSGVHTFPAVLQSDLYTLSSSVTVTSSTWPSQSITCNVAHPASSTKVDKKIEPRGPTIKPCPPCKCPAPNAAGGPSVFIFPPKIKDVLMISLSPIVTCVVVDVSEDDPDVQISWFVNNVEVHTAQTQTHREDYNSTLRVVSALPIQHQDWMSGKEFKCKVNNKDLGAPIERTISKPKGSVRAPQVYVLPPPEKEMTKKQVSLTCLVKDFMPEDIYVEWTNNGKTELNYKNTEPVLKSDGSYFMYSKLTVEKKNWVERNSYSCSVVHEGLHNHHTTKSFSRTPGGGGSGGGSHHHHHH
light: DIQMTQSPSSLSASVGDRVTITCRASQSISTWLAWYQQKPGKAPKLLIYAASSLDSGVPSRFSGSGSGTDFTLTISSLQPEDFATYYCQQSYSFPVTFGQGTKVEIKRADAAPTVSIFPPSSEQLTSGGASVVCFLNNFYPKDINVKWKIDGSERQNGVLNSWTDQDSKDSTYSMSSTLTLTKDEYERHNSYTCEATHKTSTSPIVKSFNRNEC
notes: also called AF3951
binding result [2]: binds

Now from value to binder:

binding result [2]: binds
B5: AF003955 (other)
heavy 1: APASSSTKKTQLQLEHLLLDLQMILNGINNYKNPKLTRMLTAKFAMPKKATELKHLQCLEEELKPLEEVLNGAQSKNFHLRPRDLISNINVIVLELKGSETTFMCEYADETATIVEFLNRWITFAQSIISTLTGGGGSGGGGSGGGGSGGGGSQVQLVQSGAEVKKPGASVKVSCKASGHTFTRYYMHWVRQAPGQGLEWMGIINPSGGYATYAQKFQGRVTMTRDTSTSTVYMELSSLRSEDTAVYYCASGLFIWGQGTLVTVSSAKTTAPSVYPLAPVCGDTTGSSVTLGCLVKGYFPEPVTLTWNSGSLSSGVHTFPAVLQSDLYTLSSSVTVTSSTWPSQSITCNVAHPASSTKVDKKIEPRGPTIKPCPPCKCPAPNAAGGPSVFIFPPKIKDVLMISLSPIVTCVVVDVSEDDPDVQISWFVNNVEVHTAQTQTHREDYNSTLRVVSALPIQHQDWMSGKEFKCKVNNKDLGAPIERTISKPKGSVRAPQVYVLPPPEEEMTKKQVTLTCMVTDFMPEDIYVEWTNNGKTELNYKNTEPVLDSDGSYFMYSDLRVEKKNWVERNSYSCSVVHEGLHNHHTTESFSRTPGK
heavy 2: QVQLVQSGAEVKKPGASVKVSCKASGHTFTRYYMHWVRQAPGQGLEWMGIINPSGGYATYAQKFQGRVTMTRDTSTSTVYMELSSLRSEDTAVYYCASGLFIWGQGTLVTVSSAKTTAPSVYPLAPVCGDTTGSSVTLGCLVKGYFPEPVTLTWNSGSLSSGVHTFPAVLQSDLYTLSSSVTVTSSTWPSQSITCNVAHPASSTKVDKKIEPRGPTIKPCPPCKCPAPNAAGGPSVFIFPPKIKDVLMISLSPIVTCVVVDVSEDDPDVQISWFVNNVEVHTAQTQTHREDYNSTLRVVSALPIQHQDWMSGKEFKCKVNNKDLGAPIERTISKPKGSVRAPQVYVLPPPEKEMTKKQVSLTCLVKDFMPEDIYVEWTNNGKTELNYKNTEPVLKSDGSYFMYSKLTVEKKNWVERNSYSCSVVHEGLHNHHTTKSFSRTPGGGGSGGGSHHHHHH
light: B4 light with S30N, T31S, A51T, S53T, D55E, S91Y, S93R
notes: also called AF3955

binding result [2]: binds
B6: AF003953 (other)
heavy 1: B4 heavy 1 with D184T
heavy 2: B4 heavy 2 with D31T
light: B4 light
notes: also called AF3953

binding result [2]: binds
B7: AF003952 (other)
heavy 1: B4 heavy 1 with D184R
heavy 2: B4 heavy 2 with D31R
light: B4 light
notes: also called AF3952

binding result [2]: binds
B8: AF003956 (other)
heavy 1: B4 heavy 1
heavy 2: B4 heavy 2
light: B4 light with S93R
notes: also called AF3956
